Here are results for two molecules from publication PMC4183563, “Protospacer Adjacent Motif (PAM)-Distal Sequences Engage CRISPR Cas9 DNA Target Cleavage”.

By Kd is commonly meant the equilibrium constant for the complex coming apart.

For data set [1], the target named is T1, Cas9 (wild type) (Streptococcus pyogenes, UniProt Q99ZW2 1-1368). Nature of the data set: EMSA; 20 nM crRNA cr20, 20 nM tracrRNA; EMSA: 1 nM 32P-dsDNA, 10 nM Cas9 (or titrated), 20 nM tracrRNA, 20 nM crRNA, 2.5 ug/ml heparin, 5% native PAGE; buffer, pH and temperature as in cited ref 11 (not given). The note with it: protein: recombinant; label: 32P on DNA; duplex DNA; crRNA:tracrRNA guide.

Data set [2] concerns the target T1, Cas9 (wild type). Nature of the data set: EMSA; cr20 + tracrRNA; EMSA: 1 nM 32P-dsDNA, 10 nM Cas9 (or titrated), 20 nM tracrRNA, 20 nM crRNA, 2.5 ug/ml heparin, 5% native PAGE; buffer, pH and temperature as in cited ref 11 (not given). The conditions noted are these: protein: recombinant; label: 32P on DNA; duplex DNA; crRNA:tracrRNA guide. In general terms: Mobility shift assays separate free from complexed probe on a gel.

T1 sequence (Q99ZW2 whole entry): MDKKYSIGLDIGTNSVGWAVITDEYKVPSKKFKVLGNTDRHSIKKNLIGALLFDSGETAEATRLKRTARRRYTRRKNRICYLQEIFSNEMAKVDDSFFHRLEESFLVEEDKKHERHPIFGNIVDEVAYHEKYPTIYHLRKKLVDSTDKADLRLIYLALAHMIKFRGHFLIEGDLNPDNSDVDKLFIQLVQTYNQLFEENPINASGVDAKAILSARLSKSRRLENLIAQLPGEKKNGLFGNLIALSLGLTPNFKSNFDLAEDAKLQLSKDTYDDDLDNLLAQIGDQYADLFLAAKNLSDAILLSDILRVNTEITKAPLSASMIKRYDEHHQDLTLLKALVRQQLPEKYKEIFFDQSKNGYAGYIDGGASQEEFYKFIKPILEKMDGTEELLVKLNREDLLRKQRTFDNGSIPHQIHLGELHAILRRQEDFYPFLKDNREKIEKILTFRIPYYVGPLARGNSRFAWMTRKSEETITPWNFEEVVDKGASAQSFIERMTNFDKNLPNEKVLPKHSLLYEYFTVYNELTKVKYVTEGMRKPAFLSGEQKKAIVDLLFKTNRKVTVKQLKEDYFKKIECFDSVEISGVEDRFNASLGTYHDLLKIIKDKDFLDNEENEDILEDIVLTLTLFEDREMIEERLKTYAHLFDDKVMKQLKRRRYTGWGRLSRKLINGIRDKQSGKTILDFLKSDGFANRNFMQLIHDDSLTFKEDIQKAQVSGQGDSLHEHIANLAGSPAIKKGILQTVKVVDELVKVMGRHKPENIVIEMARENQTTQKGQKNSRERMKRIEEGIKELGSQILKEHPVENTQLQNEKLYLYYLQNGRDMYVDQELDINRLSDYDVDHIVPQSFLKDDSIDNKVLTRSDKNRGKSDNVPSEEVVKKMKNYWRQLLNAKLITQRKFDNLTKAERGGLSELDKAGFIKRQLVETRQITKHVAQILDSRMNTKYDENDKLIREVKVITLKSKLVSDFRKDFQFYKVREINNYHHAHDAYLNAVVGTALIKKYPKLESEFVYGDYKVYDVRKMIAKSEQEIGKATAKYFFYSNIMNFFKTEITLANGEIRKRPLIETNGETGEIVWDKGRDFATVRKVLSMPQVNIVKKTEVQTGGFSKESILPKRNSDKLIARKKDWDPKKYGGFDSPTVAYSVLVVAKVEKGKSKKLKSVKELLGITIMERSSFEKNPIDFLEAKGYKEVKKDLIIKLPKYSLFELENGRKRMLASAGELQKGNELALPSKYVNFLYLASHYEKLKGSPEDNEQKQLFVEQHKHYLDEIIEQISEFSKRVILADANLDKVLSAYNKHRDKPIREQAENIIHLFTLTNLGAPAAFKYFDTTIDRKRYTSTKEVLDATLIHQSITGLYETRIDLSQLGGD

B1: p53 [Exon 7] 55 bp duplex + cr20 + tracrRNA (mixed)
DNA 1: TCCACTACAAGTACATGTGTAATAGCTCCTGCATGGGGGGCATGAACCGCCGACC
DNA 2: GGTCGGCGGTTCATGCCCCCCATGCAGGAGCTATTACACATGTACTTGTAGTGGA
For the molecule B1, in data set [1], the equilibrium dissociation constant (Kd) was determined as 1.5 ± 0.1 nM.

B2: OT#7 probe + cr20 + tracrRNA (mixed)
DNA 1: TCCACTACAAGTACATGTGGAACAGCTCCTGCATGGGGGGCATGAACCGCCGACC
DNA 2: GGTCGGCGGTTCATGCCCCCCATGCAGGAGCTGTTCCACATGTACTTGTAGTGGA
On to B2, for which the binding result in data set [2] is listed as “binds”.
